This is an account of results in the supplement of paper PMC12042874.

± gives the uncertainty stated by the source.

The nature of the data set: amyloid nucleation score (Sup35N fusion, yeast selection) (log enrichment); library NNK3; higher = more nucleation; inactive = no reads after selection. A digest of the protocol: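 The nucleation score, computed with DiMSum, is the log enrichment of output over input reads, centred on the mode score of non-aggregating sequences. Sequences with under 100 input reads were dropped. Reads were generated by Illumina sequencing of plasmid inserts from psi-negative yeast with Sup35N fused to peptides of 20 random codons, induced with 100 μM copper sulfate for 24 hours and grown 7 days at 30°C on medium lacking adenine and uracil.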
Take VCMEMLEHIMIWFNSVDT: the amyloid nucleation score entry is “inactive”.

VCNYEVVAVIRDE: the amyloid nucleation score entry is “inactive”.

As to VCPVERSY, the amyloid nucleation score entry was “inactive”.

With VCSVFLLLCANRLRVGGNYI, the amyloid nucleation score entry is “inactive”.

Regarding VCSYSMISHSAKWFVLILEW, the amyloid nucleation score result is “inactive”.

Substance VCTYNLAFGYFGVVWLTFVV displayed an amyloid nucleation score of -0.519 ± 0.82.

For the substance VCVKYAMTPVWSAGAARFHK, the amyloid nucleation score result was “inactive”.

Consider VCWSYNSNL, for which the amyloid nucleation score result is “inactive”.

On to VCYPHLYWMDPGWVS, for which the amyloid nucleation score entry is “inactive”.

Regarding VDEIWMGGLFCILYVSEVHK, the amyloid nucleation score entry is “inactive”.

For VDLAIMLVDLLGHSKMYQTG, the amyloid nucleation score result is “inactive”.

VDLRSLSPGYIDFTVISPLL registered an amyloid nucleation score of -0.952 ± 0.83.

Take VDMSELVWIISPEVHTVSCS: the amyloid nucleation score result is “inactive”.

As to VDNCYDVITSLILSKYVLTL, the amyloid nucleation score entry was “inactive”.

As for VDSLFSGKNYELECKFDSWI, the amyloid nucleation score result was “inactive”.

Turning to VDSSGLV, the amyloid nucleation score result is “inactive”.

With VDVDCYLLSKNM, the amyloid nucleation score result was “inactive”.

Turning to VDVLER, the amyloid nucleation score entry was “inactive”.

For VDYFW, the amyloid nucleation score entry is “inactive”.

As for VEFSPMFHQGVTM, the amyloid nucleation score result is “inactive”.

As to VEGCKEGVRVYHLTFESFVI, the amyloid nucleation score result was “inactive”.

Regarding VENGCGAT, the amyloid nucleation score result is “inactive”.

On to VESCRKDTYNSWFFDCLGDR, for which the amyloid nucleation score result was “inactive”.

In the case of VESLSVSAAL, the amyloid nucleation score result was “inactive”.

For the substance VFAISV, the amyloid nucleation score result is “inactive”.

Take VFAMLLDMFDCARQWPAIPL: the amyloid nucleation score result is “inactive”.

Consider VFCHTAIL, for which the amyloid nucleation score entry is “inactive”.

For VFCKNLNYALRMPSKWGLYT, the amyloid nucleation score result was “inactive”.

As to VFDCYHRTGVMETVCWNVFG, the amyloid nucleation score entry is “inactive”.

On to VFEVVYV, for which the amyloid nucleation score entry is “inactive”.

For the substance VFFFMELEYSYFEY, the amyloid nucleation score entry is “inactive”.

As to VFFIAAFLSTCMR, the amyloid nucleation score entry is “inactive”.

As for VFRTSLLKSYFGFNMKCDNY, the amyloid nucleation score came out at 0.039 ± 0.26.

As to VFSIKIYKPKSSFHDRFYSV, the amyloid nucleation score entry is “inactive”.

Regarding VFVDLPRARG, the amyloid nucleation score was found to be 0.499 ± 0.32.

On to VFVDYCNKYGEFVSGTAQVS, for which the amyloid nucleation score result was “inactive”.

Substance VFVFLPSWDISYDDPRGWSV displayed an amyloid nucleation score of 0.241 ± 0.19.

Take VFWYKYVFSCNIIQGLLRMK: the amyloid nucleation score result was “inactive”.

VFYFDSFRICSYVVLYGHMA had an amyloid nucleation score of 0.601 ± 0.28.

VGAYYGMFNSLMSFLQWISQ returned an amyloid nucleation score of 0.733 ± 0.2.

As for VGDVFSKRCHMRLFMNSLER, the amyloid nucleation score result was “inactive”.

Turning to VGELIGLGSLWGMEINY, the amyloid nucleation score entry is “inactive”.

VGETWNSVACVLTQLWLTCE displayed an amyloid nucleation score of -0.014 ± 0.26.

With VGKYAGCCLKRPSLDAMGHV, the amyloid nucleation score result is “inactive”.

As to VGLFASPDRRYRMIAFVPGL, the amyloid nucleation score result is “inactive”.

VGLVMNCNKFYVLWFDQIGK gave an amyloid nucleation score of 2.27 ± 0.068.

For the substance VGMGLAKDVR, the amyloid nucleation score result was “inactive”.

As for VGPALNVVSWELV, the amyloid nucleation score entry was “inactive”.

Regarding VGQCFNELVRFNRSGISRLV, the amyloid nucleation score entry is “inactive”.

Turning to VGRYPSLVSLNDTCNDVTRI, the amyloid nucleation score result is “inactive”.

With VGSLDVIVINQKFSVFVMSC, the amyloid nucleation score entry is “inactive”.

Substance VGTFRGSEGPRFVLVV came in with an amyloid nucleation score of -0.486 ± 1.9.

As for VGTIVFVFSFASWPRVGYIR, the amyloid nucleation score entry is “inactive”.

Consider VGVFV, for which the amyloid nucleation score result is “inactive”.

Turning to VGVMLYWVKEFFVL, the amyloid nucleation score result was “inactive”.

Regarding VGVNWTFPMPLSTL, the amyloid nucleation score entry was “inactive”.

With VGWNQDGDHMKSLKVAWARW, the amyloid nucleation score entry was “inactive”.

VHKYMGEVLHQYFPLMLYLF showed an amyloid nucleation score of 0.807 ± 0.1.

For VHSCLLCHWSFYWLLFFMRS, the amyloid nucleation score entry was “inactive”.

For the substance VHTVTSCNLKDLLMKIHCTR, the amyloid nucleation score entry is “inactive”.

For VHVRLQAPFPEAL, the amyloid nucleation score result was “inactive”.

Turning to VHVYCNWKFRDEIRANSTRR, the amyloid nucleation score entry was “inactive”.

Substance VIAVSYNFTWFKTSIFN came in with an amyloid nucleation score of 1.31 ± 0.11.

Substance VICLLPLT yielded an amyloid nucleation score of 0.099 ± 0.3.

As to VICRKLVMPFVESNRWHWSN, the amyloid nucleation score result is “inactive”.

For VIDDHMFQRKRQMVLKKQLN, the amyloid nucleation score result is “inactive”.

Turning to VIFLGAYHNSLLNRAMHSGH, the amyloid nucleation score was determined as 1.45 ± 0.12.

For the substance VIFSITANIRAQFLFYCYRV, the amyloid nucleation score is -0.083 ± 0.81.

The substance VIHQIMIMYGVYPASMKLFF displayed an amyloid nucleation score of 1.77 ± 0.098.

On to VIICIAGGLPMRTH, for which the amyloid nucleation score was 1.71 ± 0.06.

With VIIINRVIENRWSDRHEITN, the amyloid nucleation score worked out at 2.57 ± 0.053.

As for VIIYI, the amyloid nucleation score result is “inactive”.

Take VIKTLTHSFHLTNGFGTSYI: the amyloid nucleation score result is “inactive”.

Turning to VIKVWLLCRRIVSVQFLAP, the amyloid nucleation score result is “inactive”.

Take VIMADA: the amyloid nucleation score result was “inactive”.

With VIMSRCPVHIDMVPRDAQPL, the amyloid nucleation score result is “inactive”.

With VINSR, the amyloid nucleation score entry was “inactive”.

Turning to VIPFPFNLGDYCRMFDPRRS, the amyloid nucleation score result was “inactive”.

VIRVTWGYNWNNYVKHVYRS gave an amyloid nucleation score of 0.35 ± 0.55.

For the substance VISFDVWSNRMCFLMGMIWH, the amyloid nucleation score result was “inactive”.

For VISFLMKLRWYCTVHGSGGM, the amyloid nucleation score result was “inactive”.

VISLRLVLNWNVTGVSLLGW: the amyloid nucleation score is 0.611 ± 0.16.

Turning to VIVARFLFMGTTFHVPDVRP, the amyloid nucleation score was 1.97 ± 0.075.

As to VIVLNFALLRASLSAGFLMS, the amyloid nucleation score came out at 0.405 ± 0.28.

As to VIYVKSIMSFSLCDFDY, the amyloid nucleation score was found to be 3.11 ± 0.074.

With VKEMFKF, the amyloid nucleation score result was “inactive”.

For VKNIWIDVTMGDQLFIPNFY, the amyloid nucleation score was found to be 2.36 ± 0.051.

For VKRGLVCETSLCRYFFLFGQ, the amyloid nucleation score was 1.35 ± 0.089.

In turn, VKSFVSFCSGTLSPLMFRSG came in with an amyloid nucleation score of 0.535 ± 0.19.

On to VKTNVCTTYGHY, for which the amyloid nucleation score entry was “inactive”.

Take VKWLLGMSEWKG: the amyloid nucleation score is -0.877 ± 2.4.

In the case of VLASWASYPTGSQSKGGERT, the amyloid nucleation score result was “inactive”.

As to VLDVVY, the amyloid nucleation score result was “inactive”.

Take VLFKYTSRIMDCVKTLKPLK: the amyloid nucleation score result is “inactive”.

In the case of VLGNRRFSGLFGEYQGKTTG, the amyloid nucleation score was -0.593 ± 1.1.

With VLGPDGRVKYVAKDSNIMVI, the amyloid nucleation score entry was “inactive”.

In the case of VLGYDGAGKVVIFDVNLAGL, the amyloid nucleation score was determined as 1.87 ± 0.083.

Consider VLIMPA, for which the amyloid nucleation score result is “inactive”.
